Source: the supplement of paper PMC7877785
± gives the uncertainty stated by the source.

Test: self-splicing fitness, log relative to wild type (ln ratio); higher = more splicing; Tetrahymena group I intron in knt gene, E. coli kanamycin selection, DiMSum; sequences stand for … in CUCUCU…GGAGGGAAAAGUUAUCAGGCAUGCACCUGGUAGCUAGUCUUUAAACCAAUAGAUUGCAUCGGUUUAAAAGGCAAGACCGUCAAAUUGCGGGAAAGGGGUCAACAGCCGUUCAGUACCAAGUCUCAGGGGAAACUUUGAGAUGGCCUUGCAAAGGGUAUGGUAAUAAGCUGACGGACAUGGUCCUAACCACGCAGCCAAGUCCUAAGUCAACAGAUCUUCUGUUGAUAUGGAUGCAGUUCACAGACUAAAUGUCGGUCGGGGAAGAUGUAUUCUUCUCAUAAGAUAUAGUCGGACCUCUCCUUAAUGGGAGCUAGCGGAUGAAGUGAUGCAACACUGGAGCCGCUGGGAACUAAUUUGUAUGCGAAAGUAUAUUGAUUAGUUUUGGAGUACUCGUGGUCG
How it was run: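 Library with all eight P1ex-region intron nucleotides randomised, intron inside the knt kanamycin-resistance gene on pET-22b(+), in E. coli BL21(DE3). Cells grew overnight at 37°C or 30°C on LB agar with or without 25 μg/mL kanamycin (plus 100 μg/mL carbenicillin, 50 μM IPTG, 0.2% rhamnose), in six replicate transformations. Pooled colonies were amplicon-sequenced on Illumina HiSeq 2500. DiMSum fitness is the error-weighted combination of wild-type-normalised replicate fold changes, kanamycin versus none.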

| Sequence | self-splicing fitness (ln) (30 °C) | self-splicing fitness (ln) (37 °C) |
| --- | --- | --- |
| UGGAAGCAAUAUUACGCGCU | -1.17 ± 0.21 | -1.52 ± 0.3 |
| UCCAAGCAAUAUUACGCUCU | -3.44 ± 0.28 | -1.75 ± 0.18 |
| UUAAAGCAAUAUUACGAGAA | -1.48 ± 0.096 | -0.717 ± 0.12 |
| AAGUAGCAAUAUUACGCAUC | -3.84 ± 0.47 | -1.08 ± 0.23 |
| CCUUAGCAAUAUUACGUACC | -3.04 ± 0.45 | – |
| ACCGAGCAAUAUUACGAAAA | -3.51 ± 0.3 | -2.81 ± 0.24 |
| AGUGAGCAAUAUUACGGUGU | -4.01 ± 0.29 | -3.73 ± 0.34 |
| ACUUAGCAAUAUUACGAGAG | -2.21 ± 0.12 | -0.741 ± 0.11 |
| CACCAGCAAUAUUACGGUCU | -1.44 ± 0.044 | -1.04 ± 0.057 |
| CCAUAGCAAUAUUACGCAGG | -3.98 ± 0.28 | -3.18 ± 0.35 |
| GUCCAGCAAUAUUACGAGUA | -2.36 ± 0.16 | -0.787 ± 0.12 |
| CGCUAGCAAUAUUACGCCCG | -2.1 ± 0.22 | -0.695 ± 0.35 |
| AGCUAGCAAUAUUACGAAGU | -4.06 ± 0.32 | -1.73 ± 0.26 |
| UGGAAGCAAUAUUACGAUCA | -0.348 ± 0.093 | 0.181 ± 0.12 |
| ACCGAGCAAUAUUACGCUCA | -1.14 ± 0.13 | -0.577 ± 0.2 |
| GCGGAGCAAUAUUACGAGUU | -3.16 ± 0.31 | -1.91 ± 0.25 |
| CCGAAGCAAUAUUACGGCCU | -3.94 ± 0.36 | -2.02 ± 0.33 |
| CAUAAGCAAUAUUACGUGUC | -3.62 ± 0.2 | -2.55 ± 0.17 |
| UGUGAGCAAUAUUACGUUAU | -4.11 ± 0.28 | -3.51 ± 0.28 |
| AUAUAGCAAUAUUACGCGGA | -1.65 ± 0.26 | -1.67 ± 0.17 |
| CGUGAGCAAUAUUACGGUCG | -1.17 ± 0.083 | -0.688 ± 0.13 |
| AGUAAGCAAUAUUACGGUUC | -2.9 ± 0.19 | -1.55 ± 0.44 |
| UACAAGCAAUAUUACGGGGA | -1.5 ± 0.12 | -1.09 ± 0.13 |
| AGCCAGCAAUAUUACGGCGC | -1.51 ± 0.13 | -0.844 ± 0.16 |
| CUCCAGCAAUAUUACGGGCA | – | -2.52 ± 0.27 |

| Sequence | self-splicing fitness (ln) (30 °C) | self-splicing fitness (ln) (37 °C) |
| --- | --- | --- |
| CUCAAGCAAUAUUACGGUGU | -3.3 ± 0.12 | -1.31 ± 0.13 |
| GGUGAGCAAUAUUACGUCUU | -0.609 ± 0.2 | 0.239 ± 0.25 |
| GCACAGCAAUAUUACGCAGA | -3.16 ± 0.28 | -3.06 ± 0.29 |
| GCAAAGCAAUAUUACGCGAU | -2.8 ± 0.23 | -2.73 ± 0.3 |
| UUAGAGCAAUAUUACGUAGC | -2.12 ± 0.24 | – |
| GAAAAGCAAUAUUACGUGUU | -2.35 ± 0.083 | -1.18 ± 0.088 |
| AGAAAGCAAUAUUACGUACA | -0.839 ± 0.075 | -0.379 ± 0.1 |
| UGGCAGCAAUAUUACGCUGC | -2.98 ± 0.25 | – |
| CUGCAGCAAUAUUACGGUCC | -3.4 ± 0.23 | -2.99 ± 0.37 |
| AACCAGCAAUAUUACGGGUG | -1.14 ± 0.046 | -0.409 ± 0.064 |
| CCAAAGCAAUAUUACGCCAA | -2.73 ± 0.2 | -1.96 ± 0.23 |
| GUGCAGCAAUAUUACGUUAU | -1.84 ± 0.084 | -0.973 ± 0.098 |
| AUGCAGCAAUAUUACGCACU | -0.148 ± 0.12 | 0.309 ± 0.16 |
| UGGUAGCAAUAUUACGAGGC | -2.16 ± 0.28 | -2.19 ± 0.28 |
| CUCGAGCAAUAUUACGGUGC | -2.95 ± 0.25 | -2.88 ± 0.31 |
| GUCUAGCAAUAUUACGAGGG | -3.1 ± 0.11 | -1.57 ± 0.09 |
| CGGGAGCAAUAUUACGUCAA | -2.14 ± 0.19 | -2.79 ± 0.38 |
| AGACAGCAAUAUUACGAAGG | -3.88 ± 0.18 | -2.75 ± 0.23 |
| CGCGAGCAAUAUUACGGUCA | -2.23 ± 0.17 | -1.63 ± 0.15 |
| UUGAAGCAAUAUUACGAUAA | -0.132 ± 0.23 | 0.686 ± 0.36 |
| UUCAAGCAAUAUUACGACAC | -2.8 ± 0.28 | -1.39 ± 0.18 |
| CCGUAGCAAUAUUACGUUCU | -3.34 ± 0.28 | -3.36 ± 0.42 |
| UUCUAGCAAUAUUACGGUGA | -0.462 ± 0.086 | -0.28 ± 0.11 |
| UCCGAGCAAUAUUACGAAUG | -2.81 ± 0.17 | -2.94 ± 0.21 |
